Read-outs that look alike come from different tables or passages of the source.
Assays:
[1] = system: human tumor cells; format: cell-based; details: controls at equimolar or 5 to 10× greater concentrations
Experimental: The anti-tumor activities of MA were assessed in several in vitro and in vivo systems using published methods.^166 In vitro studies were with a wide variety of human tumor cell lines as well as short-term cultures of cells from biopsy samples obtained from tumors. The assays included effects of MA on colony formation, cell number and viability (trypan blue), and apoptosis. Four measures of microscopy were used. In vivo studies included the effects of MA on tumors induced in immunodeficient mice by xenotransplanted various human neoplastic cells, spontaneous neoplasms of immuno-competent mice and rats, and a few standard tumors in immuno-competent mice. Representative examples are presented.
Cells (5×10^5/ml) were seeded in modified Eagle's medium supplemented with 10% FCS, 10% conditioned medium form PHA stimulated human lymphocytes, 2 mM glutamine in 0.8% V/V methylcellulose with or without various treatments in a final volume of 1.0 ml. Then 0.1 ml aliquots were seeded in 96 well flat bottom microtest plates and incubated at 37° C. in 5% CO2 in air for 7 days. Aggregates containing 50 cells or more were scored as colonies.
5×10^5 cells were seeded in triplicate on 24 gelatin coated wells in conditions as described for Panel A and treated with the indicated test materials. After 3 days the cells were dislodged from their monolayers by gentle pipetting with cell dissociation buffer (Life Technologies), counted after trypan blue staining and aliquots examined for Annexin V staining by indirect IFA […].
Studies of the anti-tumor cell effects of MA were extended to other carcinomas, melanoma, some hematopoietic tumors, and carcinomas of the colon, prostate, breast, lung, brain, pancreas, and kidney-using cell lines from these tumors. […] Many more types of tumor cells were studied utilizing other assays (see below).

[2] = system: HIV-1 gene expression; test: HIV-1 transgenic mice, pups feeding from treated mothers; format: in vivo; details: mouse, in vivo
Description: The transgenic mice contain 5.1 kb of the HIV-1 proviral genome, lacking gag and pol genes and 2.3 kb of vector.^172 The newly developed transgenic rat contains the same HIV-1 sequences and vector.
Twenty-four hours after birth the mothers were either inoculated subcutaneously daily for 10 days or received an implanted osmotic pump delivering 30-150 pmoles of either native or synthetic MA or pMA. Various control polypeptides were used at equimolar or vast molar excess. The newborn pups were then allowed to feed from the foster mother breast milk over the entire period. Since the animals are at risk from needle inoculation, breastfeeding was the chosen route for MA administration.
In these experiments total RNA was extracted from samples of skin RNA206 10 days after birth of MA treated and untreated mice. One ug of RNA was reverse transcribed into cDNA using random hexamer primer and […] reverse transcriptase (Life Technologies, Inc.) in a final vol. Of 30 ul. Three ul of each reaction was used for PCR amplification of the HIV-1 gene sequences (env, tat, nef, and rev) as described […], and glyceraldehyde 3-phosphate dehydrogenase (GAPDH) was amplified from each sample for normalization. After 25 cycles, 10% of the products were resolved by electrophoresis on 2% agarose gels, transferred to nitrocellulose membranes by Southern blotting, and hybridized to fluorescein isthiocyanate-labeled oligonucleotide probes complementary to internal sequences of the amplicons […]. Bound probes were detected by chemiluminescence (Amersham) and relative mRNA levels determined by densitrometry after normalization with GAPDH mRNA levels.

[3] = Summary of active and inactive peptides / overall biological activities
[4] = system: hematopoietic progenitors (CFU-GEMM, BFU-e, CFU-GM, T-CFC); test: Hematopoietic colony formation assays; format: cell-based, human
Description: Hematopoietic colony formation assays with bone marrow or cord blood of normal human volunteers and bone marrow of monkeys, rats, and mice were utilized. The assays are conventional measurements of the number of progenitors for erythrocytes, granulocytes, macrophages, platelets, and T-cells. The culture conditions included growth factors that would give near optimum growth for the particular lineage. These factors included II-3, PHA-lymphocyte conditioned medium, erythropoietin (EPO), II-6, and GM-CSF. The number of colonies developing in methylcellulose reflects the number of progenitor cells, and the percent increase is a measure of the effect of different polypeptides to increase colony number above the maximum obtained with the indicated known growth factors.
The latter is a less conventional assay, and details on the methods involved are described elsewhere.^178

[5] = system: human carcinoma and sarcoma cells (PC3, KS Y-1); test: Xenotransplanted human tumors in immunodeficient mice; format: in vivo; details: controls at equivalent and higher molar concentrations
Experimental: In the first set of experiments, MA was tested against tumors formed by xenotransplantation of various human carcinoma and sarcoma cells in immunodeficient mice. […] […] Three different synthetic forms of MA were used: full length (MAS3) and the previously described MAS1 and MAS2 (Panel C).

[6] = Lethally irradiated rats and mice; details: treated at time of radiation
Experimental: In order to determine in vivo relevance of the prohematopoietic effects of MA treated rats and mice under several conditions of bone marrow suppression. First, the effects of native MA and pMA and of the synthetic 15-mer MAS1 were treated for their capacity to reduce or prevent the effects of lethal doses of gamma irradiation. […] MA, pMA, MAS1, and various control polypeptides were given 48 and 24 hrs before, during, or 24 hrs after radiation. The animals treated prior to radiation received either 100 ng vs. 1 ug (rats) or 50 ng vs. 500 ng (mice) as 2 subcutaneous injections.
It is not yet possible to determine the precise molar dose of pMA because of less certainty on its full-length sequence.
To ascertain that the MA effect did promote hematopoiesis in these animals we examined the bone marrow for cellularity and colony formation and determined peripheral blood counts.

[7] = Lethal dose taxol in Sprague-Dawley rats; format: in vivo; details: even at high doses
Experimental: Sprague-Dawley rats were given taxol in large lethal doses, 4.5 mg in one I.P. inoculation. […] Bone marrow suppression can also be a side effect of the clinical use of taxol.^179 As in the radiation experiments, either MA, pMA, MAS1, or various polypeptide controls were given subcutaneously only in two doses 24 and 48 hrs before taxol treatment or were given 3×/week for 4 weeks. […]

β-hCG 6-39: SEQ ID NO: 17 (RPRCRPINATLAVEKEGCPVCITVNTTICAGYCP; listed as Homo sapiens)
inhibition of growth / induction of apoptosis of neoplastic cells [1]: negative

β-hCG AA 21-52: control peptide 32 amino acids in length, AA 21-52 of β-hCG (EGCPVCITVNTTICAGYCPTMTRVLQGVLPAL; listed as Homo sapiens) [reference compound]
inhibition of growth / induction of apoptosis of neoplastic cells [1]: negative | HIV-1 viral expression in tissues [2]: high expression | mice dead by day 10 [2]: 10 of 10

peptide 6-42: β-core AA 6-42 N-terminal polypeptide with PDGF related sequences (RPRCRPINATLAVEKEGCPVCITVNTTICAGYCPTMT; UniProt P0DN86 26-62, looked up, fragment) [reference compound]
biological activities in vitro or in vivo in the experimental systems described [3]: none of the activities

B1: β-core: purified hCG beta core, degradation product of the beta chain of hCG; full length native glycosylated AA 6-40 & 55-92 (protein)
chain 1: RPRCRPINATLAVEKEGCPVCITVNTTICAGYCPTMT
chain 2: VVCNYRDVRFESIRLPGCPRGVNPVVSYAVALSCQCAL
inhibition of growth / induction of apoptosis of neoplastic cells [1]: no inhibition of growth or induction of apoptosis | hematopoietic effects in vivo and in vitro [4]: None | effect on colony number (qualitative) ([4]; equimolar or higher concentrations): no significant effect above background | biological activities in vitro or in vivo in the experimental systems described ([3]; listed as native glycosylated β-core): none of the biological activities | biological activities in vitro or in vivo in the experimental systems described ([3]; listed as purified native glycosylated core): no activity | effect on xenotransplanted tumor (qualitative) [5]: no effect | HIV-1 viral expression in tissues [2]: high expression | mice dead by day 10 [2]: 10 of 10 | time within which animals died [6]: ≤ 5 days | effect on survival (qualitative) [7]: no effect
